US8933202B2, “AXL antibodies” (U3 Pharma GmbH, priority 2007, dated 2015)

Key:
Akt-Kinase = Akt-Kinase (Ser473) phosphorylation ELISA; format: cell-based; details: 400 ng/ml Gas6
Procedure: Furthermore, ELISA experiments were performed in order to investigate whether the rat anti-AXL antibodies of the invention are able to block ligand Gas6-mediated activation of Akt-Kinase. Gas6-mediated Akt-Kinase activation was detected by increased protein (Ser473) phosphorylation. In brief, on day 1. 2×10^4 cells per well were seeded in flat-bottom 96 well plates. The next day, normal growth medium was replaced by serum-reduced (DMEM, 0.5% FCS for NIH3T3-AXL cl.7 fibroblasts) or serum-free (for cancer cell lines) medium to starve cells for 36 h. […] Medium was flicked out and cells were fixed with 4% formaldehyde in PBS (pH 7.5) for 30 min at room temperature. Formaldehyde solution was removed and cells were washed twice with wash buffer (PBS, 0.1% Tween 20). […] Tetramethylbenzidine (TMB, Calbiochem) was added and monitored at 620 nm.
In order to investigate whether the rat anti-AXL antibodies of the invention and the corresponding chimeric anti-AXL antibodies of the invention were able to block ligand Gas6-mediated activation of the Akt-Kinase in NIH3T3-AXL cl.7 fibroblasts to similar extent, ELISA experiments were performed. Antibody-mediated Akt-Kinase inhibition was detected by decreased protein (Ser473) phosphorylation. […] Tetramethylbenzidine (TMB, Calbiochem) was added and monitored at 620 nm.

human AXL-ECD = target: T1, human AXL-ECD (Homo sapiens, UniProt P30530); assay: Competition ELISA on AXL-ECD coated plates; format: binding; details: 10 μg/ml unbiotinylated, 0.5 μg/ml biotinylated antibody
T1 construct: purchased R&D Systems 154-AL
T1 sequence (P30530 26-451 limits assumed): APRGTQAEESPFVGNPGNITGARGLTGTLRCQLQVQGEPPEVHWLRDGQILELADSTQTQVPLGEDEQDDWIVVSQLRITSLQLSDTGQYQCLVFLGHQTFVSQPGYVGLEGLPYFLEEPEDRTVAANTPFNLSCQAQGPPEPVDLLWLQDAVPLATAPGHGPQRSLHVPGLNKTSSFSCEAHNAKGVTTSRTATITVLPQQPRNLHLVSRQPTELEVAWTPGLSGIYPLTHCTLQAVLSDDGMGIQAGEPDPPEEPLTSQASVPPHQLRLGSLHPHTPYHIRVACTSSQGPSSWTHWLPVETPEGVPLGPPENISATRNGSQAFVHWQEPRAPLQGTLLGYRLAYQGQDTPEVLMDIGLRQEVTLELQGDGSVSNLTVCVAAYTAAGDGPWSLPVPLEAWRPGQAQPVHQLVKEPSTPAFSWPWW
Procedure: Therefore binding of biotinylated anti-AXL antibodies to AXL-ECD domain-coated plates preincubated with anti-AXL antibodies was determined in a competition ELISA. […] On day 1, black 96 well Maxi-Sorp plates (Nunc) were coated with 100 μl/well of 1 μg/ml human AXL-ECD (R&D Systems #154-AL) in PBS over night at 4° C. […] After washing 6× with wash buffer (PBS, 0.1% TWEEN-20), 80 μl/well AP-conjugated Streptavidin (Chemicon #SA110) diluted 1:4,000 in blocking buffer were added, incubated for 20 min at room temperature washed again 6× with wash buffer and finally washed once with PBS. For detection, 100 μl/well Attophos substrate solution (Roche #11681982) were added. Using a Victor plate reader (Perkin Elmer), the fluorescence of each well was collected at an excitation wavelength of 430 nm an emission wavelength of 580 nm.

B1: 11B7: antagonistic rat anti-AXL monoclonal antibody, rat IgG1 (antibody, V domains shown)
VL: DIQMTQAPSSLPASLGDRVTITCRASQDIGNYLRWFQQKPGKSPRLMISGATNLAAGVPSRFSGSRSGSDYSLTISSLESEDMADYYCLQSKESPWTFGGGTKLELK
VH: EVQLQESGPGLVKPSQSLSLTCSVTGYSITSNYWGWIRKFPGDKMEWMGYITYSGSTSYNPSLKSRISITRDTSKNQFFLQLNSVTSEDTATYYCAITTFYYWGQGVMVTVSS
B1 was tested, and the “ligand-mediated Akt-Kinase activation, rat versus chimeric antibody” value (Akt-Kinase; 50 ng/ml to 1 μg/ml (11B7, ch11B7) or to 10 μg/ml (11D5, ch11D5), NIH3T3-AXL cl.7) was “able to inhibit ligand-mediated Akt-Kinase activation to similar extent”, the “ligand-mediated Akt-Kinase activation (phosphorylation)” value (Akt-Kinase; 10 μg/ml antibody, NIH3T3-AXL cl.7 fibroblasts and CaLa-1 lung cancer cells) was “able to block or reduce ligand-mediated Akt-Kinase activation” and the “competition with antagonistic anti-AXL antibodies for binding to AXL-ECD” value (human AXL-ECD) was “compete with each other for the same or structurally adjacent epitopes”.
